Data set [1] is described as follows: FutC candidate activity in vitro using the de novo synthesis pathway (2′-FL by HPLC). Format: biochemical. The note with it: 0.2 mg/mL fucosyltransferase, 1 mM GDP-mannose, 80 mM lactose, room temperature, 16 hours. How it is done:
The final step in the novel path to 2′-FL requires an α-1,2-fucosyltransferase. Various FutC candidates were screened for soluble expression in E. coli and fucosyltransferase activity. The candidate enzymes show different solubilities and enzymatic activity for 2′-FL synthesis. For the candidates that have highly soluble expression, their activity was tested in vitro using the de novo synthesis pathway. The reaction conditions were: 50 mM Tris-HCl pH 8.0, 2 mM NADPH, 0.1 mM NADP^+, 1 mM GDP-mannose, 80 mM lactose, 0.9 mg/mL Ec Gmd (SEQ 11), 0.2 mg/mL Ec WcaG (SEQ ID NO: 7) and 0.2 mg/mL of the fucosyltransferase candidates. The reactions were incubated at room temperature for 16 hours. The reactions were quenched by heating at 99° C. for 10 minutes, and then analyzed by HPLC.

Data set [2] is described as follows: GDP-L-fucose inhibition assay of GMD enzymes (GDP-4-keto-6-deoxymannose detection). The note with it: 350 μM GDP-L-fucose; 1 mM GDP-mannose, 0.5 mg/mL GMD. Format: biochemical. As to the method: To test for inhibition, the mutants were expressed and purified as described in Example 7, and assayed at a range of GDP-L-fucose concentrations. The assay conditions were as follows: 50 mM Tris pH 7.5, 1 mM GDP-mannose, 0.5 mM NADP^+, 0.5 mg/mL dehydratase (GMD) enzyme, and 0 μM, 70 μM or 350 μM GDP-L-fucose. The reactions were quenched at 99° C. for 10 minutes, and the enzymes' respective activities were analyzed using the nucleotide sugar LC-MS method by GDP-4-keto-6-deoxymannose detection.

These results are taken from patent US20240093255A1, “BIOSYNTHETIC PRODUCTION OF 2-FUCOSYLLACTOSE” (Conagen Inc., priority 2020, published 2024).

B1: FutC2: α-1,2-fucosyltransferase candidate from Pisciglobus halotolerans, SEQ ID NO: 23 (protein)
chain: MIYTRITSGLGNQMFQYAIAYSYSRKYDMPLILDLTNFKISKKRTYQLDKFKLNDYKKITFKNAPLEIKIFWLVEVLNMISIKLRKKEMKRKNNYNLKSTQFICEKYKEKYNINFDLTNKSLYLSGFWQSPLYFENYRDELIQQFSPNYVLSNKLKEYETKIINCRSVSVHIRRGDFLQHGLFKDVDYQKKAITYLEKKLDNPIFFFFSDDIEWTKEKFKNQKNCFFVSSDSKNSGIEEMYLMSKCENNIIANSTFSWWGAWLNQNQNKIVIAPSTGFGNKDILPKSWYTI
modifications: Pisciglobus halotolerans
As to B1, the “α-1,2-fucosyltransferase activity for 2′-FL production” value in data set [1] was “have α-1,2-fucosyltransferase activity for 2′-FL production”.

B2: Hs GMD wild type: GDP-mannose-4,6-dehydratase from Homo sapiens, wild type, SEQ ID NO: 9 (protein, listed as Homo sapiens)
chain: MRNVALITGITGQDGSYLAEFLLEKGYEVHGIVRRSSSFNTGRIEHLYKNPQAHIEGNMKLHYGDLTDSTCLVKIINEVKPTEIYNLGAQSHVKISFDLAEYTADVDGVGTLRLLDAVKTCGLINSVKFYQASTSELYGKVQEIPQKETTPFYPRSPYGAAKLYAYWIVVNFREAYNLFAVNGILFNHESPRRGANFVTRKISRSVAKIYLGQLECFSLGNLDAKRDWGHAKDYVEAMWLMLQNDEPEDFVIATGEVHSVREFVEKSFLHIGKTIVWEGKNENEVGRCKETGKVHVTVDLKYYRPTEVDFLQGDCTKAKQKLNWKPRVAFDELVREMVHADVELMRTNPNA
Take B2: in data set [2], the retained activity entry was “less than 5%”.

B3: Hs GMD M4: mutant human GMD targeting the GDP-L-fucose allosteric binding pocket, SEQ ID NO: 85 (protein)
chain: MRNVALITGITGQDGSYLAEFLLEKGYEVHGIVRRSSSFNTGRIEHLYKNPQAHIEGNMKLHYGDLTDSTCLVKIINEVKPTEIYNLGAQSHVKISFDLAEYTADVDGVGTLRLLDAVKTCGLINSVKFYQASTSELYGKVQEIPQKETTPFYPRSPYGAAKLYAYWIVVNFREAYNLFAVNGILFNHESPRRGANFVTRKISASVAKIYLGQLECFSLGNLDAKRDWGHAKDYVEAMWLMLQNDEPEDFVIATGEVHSVREFVEKSFLHIGKTIVWEGKNENEVGRCKETGKVHVTVDLKYYRPTEVDFLQGDCTKAKQKLNWKPRVAFDELVREMVHADVELMRTNPNA
modifications: Homo sapiens GMD mutant
Take B3: in data set [2], the retained activity is 100%.

B4: Hs GMD M2: mutant human GMD targeting the GDP-L-fucose allosteric binding pocket, SEQ ID NO: 81 (protein)
chain: MRNVALITGITGQDGSYLAEFLLEKGYEVHGIVRRSSSFNTGRIEHLYKNPQAAIEGNMKLHYGDLTDSTCLVKIINEVKPTEIYNLGAQSHVKISFDLAEYTADVDGVGTLRLLDAVKTCGLINSVKFYQASTSELYGKVQEIPQKETTPFYPRSPYGAAKLYAYWIVVNFREAYNLFAVNGILFNHESPRRGANFVTRKISRSVAKIYLGQLECFSLGNLDAKRDWGHAKDYVEAMWLMLQNDEPEDFVIATGEVHSVREFVEKSFLHIGKTIVWEGKNENEVGRCKETGKVHVTVDLKYYRPTEVDFLQGDCTKAKQKLNWKPRVAFDELVREMVHADVELMRTNPNA
modifications: Homo sapiens GMD mutant
Regarding B4, the retained activity in data set [2] was determined as 80%.

B5: Hs GMD M3: mutant human GMD targeting the GDP-L-fucose allosteric binding pocket, SEQ ID NO: 83 (protein)
chain: MRNVALITGITGQDGSYLAEFLLEKGYEVHGIVRRSSSFNTGRIEHLYKNPQAHIEGNMKLHYGDLTDSTCLVKIINEVKPTEIYNLGAQSHVKISFDLAEYTADVDGVGTLRLLDAVKTCGLINSVKFYQASTSELYGKVQEIPQKETTPFYPRSPYGAAKLYAYWIVVNFREAYNLFAVNGILFNHESPRRGANFVTRAISRSVAKIYLGQLECFSLGNLDAKRDWGHAKDYVEAMWLMLQNDEPEDFVIATGEVHSVREFVEKSFLHIGKTIVWEGKNENEVGRCKETGKVHVTVDLKYYRPTEVDFLQGDCTKAKQKLNWKPRVAFDELVREMVHADVELMRTNPNA
modifications: Homo sapiens GMD mutant
In data set [2], B5 had a retained activity of 100%.

B6: At GMD M4: mutant Arabidopsis thaliana GMD targeting the GDP-L-fucose allosteric binding pocket, SEQ ID NO: 79 (protein)
chain: MASENNGSRSDSESITAPKADSTVVEPRKIALITGITGQDGSYLTEFLLGKGYEVHGLIRRSSNFNTQRINHIYIDPHNVNKALMKLHYADLTDASSLRRWIDVIKPDEVYNLAAQSHVAVSFEIPDYTADVVATGALRLLEAVRSHTIDSGRTVKYYQAGSSEMFGSTPPPQSETTPFHPRSPYAASKCAAHWYTVNYREAYGLFACNGILFNHESPRRGENFVTRKITAALGRIKVGLQTKLFLGNLQASRDWGFAGDYVEAMWLMLQQEKPDDYVVATEEGHTVEEFLDVSFGYLGLNWKDYVEIDQRYFRPAEVDNLQGDASKAKEVLGWKPQVGFEKLVKMMVDEDLELAKREKVLVDAGYMDAKQQP
modifications: Arabidopsis thaliana GMD mutant
For B6, in data set [2], the retained activity stood at 100%.

B7: At GMD M3: mutant Arabidopsis thaliana GMD targeting the GDP-L-fucose allosteric binding pocket, SEQ ID NO: 77 (protein)
chain: MASENNGSRSDSESITAPKADSTVVEPRKIALITGITGQDGSYLTEFLLGKGYEVHGLIRRSSNFNTQRINHIYIDPHNVNKALMKLHYADLTDASSLRRWIDVIKPDEVYNLAAQSHVAVSFEIPDYTADVVATGALRLLEAVRSHTIDSGRTVKYYQAGSSEMFGSTPPPQSETTPFHPRSPYAASKCAAHWYTVNYREAYGLFACNGILFNHESPRRGENFVTRAITRALGRIKVGLQTKLFLGNLQASRDWGFAGDYVEAMWLMLQQEKPDDYVVATEEGHTVEEFLDVSFGYLGLNWKDYVEIDQRYFRPAEVDNLQGDASKAKEVLGWKPQVGFEKLVKMMVDEDLELAKREKVLVDAGYMDAKQQP
modifications: Arabidopsis thaliana GMD mutant
In data set [2], B7 showed a retained activity of 50%.

B8: At GMD M2: mutant Arabidopsis thaliana GMD targeting the GDP-L-fucose allosteric binding pocket, SEQ ID NO: 75 (protein)
chain: MASENNGSRSDSESITAPKADSTVVEPRKIALITGITGQDGSYLTEFLLGKGYEVHGLIRRSSNFNTQRINHIYIDPANVNKALMKLHYADLTDASSLRRWIDVIKPDEVYNLAAQSHVAVSFEIPDYTADVVATGALRLLEAVRSHTIDSGRTVKYYQAGSSEMFGSTPPPQSETTPFHPRSPYAASKCAAHWYTVNYREAYGLFACNGILFNHESPRRGENFVTRKITRALGRIKVGLQTKLFLGNLQASRDWGFAGDYVEAMWLMLQQEKPDDYVVATEEGHTVEEFLDVSFGYLGLNWKDYVEIDQRYFRPAEVDNLQGDASKAKEVLGWKPQVGFEKLVKMMVDEDLELAKREKVLVDAGYMDAKQQP
modifications: Arabidopsis thaliana GMD mutant
As to B8, the retained activity in data set [2] is given as 40%.

B9: FutC5: α-1,2-fucosyltransferase candidate from Lachnospiraceae bacterium XBB2008, SEQ ID NO: 29; parent of ASR12 (protein)
chain: MIILQMSGGLGNQMFQYALYLKLKKLGREVKFDDETSYELDNARPVQLAVFDITYPRATRQEVTDMRDSSPAWKDRIRRKLKGRNLKQYTEANYSYDEHVFELDDTYLRGYFQTEKYFSDIRDEIYKTYTMRKDLITEQTTQYEEDILSHENSVSIHIRRGDYMTIEGGEIYAGICTDEFYDSAIKYVLERHPDAVFYLFTNDSSWAEYFCNIHSDVNIHVVEGNTEYFGYLDMYLMSRCKHHIVANSSFSWWGAWLGRDADGMVIAPDPWFNCSNCADIHTDRMILIDPKGELLTDDKGVRNESEE
modifications: Lachnospiraceae bacterium XBB2008
notes: parent of ASR12
Turning to B9, the “α-1,2-fucosyltransferase activity for 2′-FL production” value in data set [1] is “have α-1,2-fucosyltransferase activity for 2′-FL production”.

B10: Ec WT: GDP-mannose-4,6-dehydratase from Escherichia coli, wild type, SEQ ID NO: 11 (protein, listed as Escherichia coli)
chain: MSKVALITGVTGQDGSYLAEFLLEKGYEVHGIKRRASSFNTERVDHIYQDPHTCNPKFHLHYGDLSDTSNLTRILREVQPDEVYNLGAMSHVAVSFESPEYTADVDAMGTLRLLEAIRFLGLEKKTRFYQASTSELYGLVQEIPQKETTPFYPRSPYAVAKLYAYWITVNYRESYGMYACNGILFNHESPRRGETFVTRKITRAIANIAQGLESCLYLGNMDSLRDWGHAKDYVKMQWMMLQQEQPEDFVIATGVQYSVRQFVEMAAAQLGIKLRFEGTGVEEKGIVVSVTGHDAPGVKPGDVIIAVDPRYFRPAEVETLLGDPTKAHEKLGWKPEITLREMVSEMVANDLEAAKKHSLLKSHGYDVAIALES
Molecule B10 showed a decrease in activity in data set [2] of 80%.
